Results published in IntAct's records for PubMed 29688405.

What was measured:
frem2_human FREM2 = frem2_human FREM2 (UniProt Q5SZK8)
frem1_human FREM1 = frem1_human FREM1 (UniProt Q5H8C1)
UniProt Q5H8C1, sequence (Q5H8C1 whole entry): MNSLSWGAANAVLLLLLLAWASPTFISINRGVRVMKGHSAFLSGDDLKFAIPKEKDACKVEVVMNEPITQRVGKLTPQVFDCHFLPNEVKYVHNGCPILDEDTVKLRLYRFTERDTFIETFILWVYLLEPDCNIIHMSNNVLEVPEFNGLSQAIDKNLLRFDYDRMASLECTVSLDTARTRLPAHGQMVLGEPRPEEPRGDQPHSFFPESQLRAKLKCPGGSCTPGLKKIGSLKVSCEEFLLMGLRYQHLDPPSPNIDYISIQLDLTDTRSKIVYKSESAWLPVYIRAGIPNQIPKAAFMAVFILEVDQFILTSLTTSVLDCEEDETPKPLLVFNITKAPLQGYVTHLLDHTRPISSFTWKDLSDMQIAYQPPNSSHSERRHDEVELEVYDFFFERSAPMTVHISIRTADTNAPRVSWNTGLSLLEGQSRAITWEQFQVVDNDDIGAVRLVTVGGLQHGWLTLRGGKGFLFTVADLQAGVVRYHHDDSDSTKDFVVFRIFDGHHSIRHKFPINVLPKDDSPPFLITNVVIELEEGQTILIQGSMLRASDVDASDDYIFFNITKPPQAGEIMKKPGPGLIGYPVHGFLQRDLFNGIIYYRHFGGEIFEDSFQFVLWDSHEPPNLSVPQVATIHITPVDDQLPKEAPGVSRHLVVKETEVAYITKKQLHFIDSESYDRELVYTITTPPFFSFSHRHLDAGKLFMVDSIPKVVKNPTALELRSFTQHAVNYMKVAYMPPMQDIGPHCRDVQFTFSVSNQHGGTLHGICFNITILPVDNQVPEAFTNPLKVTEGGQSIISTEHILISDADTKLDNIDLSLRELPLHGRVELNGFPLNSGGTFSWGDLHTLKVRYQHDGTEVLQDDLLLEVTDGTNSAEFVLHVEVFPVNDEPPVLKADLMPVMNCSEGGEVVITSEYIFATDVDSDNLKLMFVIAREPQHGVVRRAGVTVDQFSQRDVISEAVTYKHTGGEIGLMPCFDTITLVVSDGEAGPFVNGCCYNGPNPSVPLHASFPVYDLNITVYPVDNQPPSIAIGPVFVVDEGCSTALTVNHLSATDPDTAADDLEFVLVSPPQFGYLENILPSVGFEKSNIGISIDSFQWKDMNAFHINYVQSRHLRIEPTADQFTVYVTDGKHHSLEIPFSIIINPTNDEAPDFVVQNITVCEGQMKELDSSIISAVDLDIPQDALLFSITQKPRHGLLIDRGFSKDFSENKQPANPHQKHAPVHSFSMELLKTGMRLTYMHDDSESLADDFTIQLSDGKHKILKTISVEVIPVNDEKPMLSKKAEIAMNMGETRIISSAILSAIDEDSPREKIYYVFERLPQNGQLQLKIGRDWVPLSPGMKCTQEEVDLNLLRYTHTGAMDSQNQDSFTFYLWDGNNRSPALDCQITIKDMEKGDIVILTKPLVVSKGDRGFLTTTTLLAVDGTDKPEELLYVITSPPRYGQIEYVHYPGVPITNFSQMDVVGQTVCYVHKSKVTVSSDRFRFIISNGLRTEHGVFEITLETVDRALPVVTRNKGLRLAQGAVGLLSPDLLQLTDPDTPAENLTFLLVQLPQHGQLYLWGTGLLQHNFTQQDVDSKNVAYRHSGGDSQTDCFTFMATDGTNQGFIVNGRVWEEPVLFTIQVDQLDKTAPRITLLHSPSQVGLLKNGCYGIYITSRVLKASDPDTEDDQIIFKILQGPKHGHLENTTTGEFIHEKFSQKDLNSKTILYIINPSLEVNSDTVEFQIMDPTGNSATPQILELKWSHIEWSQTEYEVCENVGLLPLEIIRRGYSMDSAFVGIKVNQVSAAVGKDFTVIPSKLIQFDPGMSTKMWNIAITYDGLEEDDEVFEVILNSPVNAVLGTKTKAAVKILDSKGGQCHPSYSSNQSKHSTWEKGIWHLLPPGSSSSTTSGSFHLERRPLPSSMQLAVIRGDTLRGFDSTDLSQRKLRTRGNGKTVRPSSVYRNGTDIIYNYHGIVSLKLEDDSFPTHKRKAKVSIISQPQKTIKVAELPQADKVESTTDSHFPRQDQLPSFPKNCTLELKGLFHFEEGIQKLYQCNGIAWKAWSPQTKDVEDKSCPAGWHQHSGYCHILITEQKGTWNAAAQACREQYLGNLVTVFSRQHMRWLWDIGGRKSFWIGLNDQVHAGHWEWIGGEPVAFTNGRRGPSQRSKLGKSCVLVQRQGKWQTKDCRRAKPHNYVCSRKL

effect of a mutation on the interaction (frem2_human FREM2)	effect of a mutation on the interaction (frem1_human FREM1)	Substance
disrupting interaction strength		FRAS1-related extracellular matrix protein 1 (Homo sapiens), Q5H8C1 L1324R
disrupting interaction strength		FRAS1-related extracellular matrix protein 1 (Homo sapiens), Q5H8C1 R649W
	decreasing interaction strength	FRAS1-related extracellular matrix protein 2 (Homo sapiens), Q5SZK8 R2167W
	disrupting interaction strength	FRAS1-related extracellular matrix protein 2 (Homo sapiens), Q5SZK8 E1972K
